Measurements reported in the supplement of paper PMC5998384.

What was measured:
HeLa Kyoto [1] = test: solubility change mitosis vs G1/S (difference of NP-40 vs SDS log2 ratios) (log2 ratio difference); higher = more soluble in mitosis
HeLa Kyoto [2] = test: melting temperature (median over replicates), in situ; higher = more thermally stable
HeLa Kyoto [3] = test: solubility in G1/S (NP-40 vs SDS abundance) (log2 ratio); higher = more soluble; details: cell cycle stage: G1/S
HeLa Kyoto [4] = test: thermal stability score vs G1/S (z-score of summed log2 fold changes over temperatures); higher = more thermally stable than in G1/S
[5] = cell cycle stage: early G1 (4.5 h after nocodazole release)
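Wherever melting temperature (median over replicates), in situ is given: HeLa Kyoto cells synchronized by double thymidine or nocodazole block, proteins quantified by TMT10plex mass spectrometry, three independent biological replicates.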
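Wherever solubility change mitosis vs G1/S (difference of NP-40 vs SDS log2 ratios) is given: synchronized HeLa Kyoto cells (double thymidine block for G1/S, nocodazole release for mitosis), protein amounts in NP-40 versus SDS lysates quantified by mass spectrometry, three biological replicates.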
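Wherever solubility in G1/S (NP-40 vs SDS abundance) is given: HeLa Kyoto cells arrested at G1/S by double thymidine block, proteins quantified by TMT10plex mass spectrometry in mild NP-40 versus SDS extracts, three biological replicates.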
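Wherever thermal stability score vs G1/S (z-score of summed log2 fold changes over temperatures) is given: synchronized HeLa Kyoto cells, proteins quantified by TMT10plex mass spectrometry, three biological replicates, mitosis taken 0.5 h after nocodazole release, G1/S directly after double thymidine block.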

Sequence: MPNWGGGKKCGVCQKTVYFAEEVQCEGNSFHKSCFLCMVCKKNLDSTTVAVHGEEIYCKSCYGKKYGPKGYGYGQGAGTLSTDKGESLGIKHEEAPGHRPTTNPNASKFAQKIGGSERCPRCSQAVYAAEKVIGAGKSWHKACFRCAKCGKGLESTTLADKDGEIYCKGCYAKNFGPKGFGFGQGAGALVHSE [CSRP1]
- solubility change mitosis (log2) (HeLa Kyoto [1]): -0.142
- melting temperature (HeLa Kyoto [2]; cell cycle stage: G1/S): 60.2 °C
- solubility in G1/S (log2) (HeLa Kyoto [3]): -0.0793
- thermal stability score (HeLa Kyoto [4]; [5]): -1.5
- thermal stability score (HeLa Kyoto [4]; cell cycle stage: mitosis): -2.91

Sequence: MSDKDDIETPLLTEAAPILEDGNCEPAKNSESVDQGAKPESKSEPVVSTRKRPETKPSSDLETSKVLPIQDNVSKDVPQTRWGYWGSWGKSILSSASATVATVGQGISNVIEKAETSLGIPGPSEISTEVKYVAGETNAKENENSSPVAGAFGVFSTISTAVQSTGKSVISGGLDALEFIGKKTMDVIAEGDPGFKRTKGLMNRNATLSQVLREAKEKEEIRTSNEVTVETDKKTHYGLLFDEFQGLSHLEALEMLSQESEIKVKSILNSLSGEELETLKVELEQLKETFSLAEFCEEEEEEKKGDEDFTKDITELFSQLHVSSKPEKLARARNTAHEWIRKSLTKPLAENEEGEKQSEAENTEQVNKNSIEDIHAFAIRSLAELTACSIELFHKTAALVLHGRKQEVTAIERSQTLSQMTIVLCKELSSLSKEFTTCLTTAGVKEMADVLNPLITAVFLEASNSASYIQDAFQLLLPVLEISLIENKIESHRHELQGQKPLLEH [FAM114A2]
- solubility change mitosis (log2) (HeLa Kyoto [1]): -0.0154
- melting temperature (HeLa Kyoto [2]; cell cycle stage: G1/S): 52.3 °C
- melting temperature (HeLa Kyoto [2]; cell cycle stage: mitosis): 52 °C
- solubility in G1/S (log2) (HeLa Kyoto [3]): 0.326
- thermal stability score (HeLa Kyoto [4]; [5]): 0.464
- thermal stability score (HeLa Kyoto [4]; cell cycle stage: mitosis): 0.0988

Sequence: MWDQGGQPWQQWPLNQQQWMQSFQHQQDPSQIDWAALAQAWIAQREASGQQSMVEQPPGMMPNGQDMSTMESGPNNHGNFQGDSNFNRMWQPEWGMHQQPPHPPPDQPWMPPTPGPMDIVPPSEDSNSQDSGEFAPDNRHIFNQNNHNFGGPPDNFAVGPVNQFDYQHGAAFGPPQGGFHPPYWQPGPPGPPAPPQNRRERPSSFRDRQRSPIALPVKQEPPQIDAVKRRTLPAWIREGLEKMEREKQKKLEKERMEQQRSQLSKKEKKATEDAEGGDGPRLPQRSKFDSDEEEEDTENVEAASSGKVTRSPSPVPQEEHSDPEMTEEEKEYQMMLLTKMLLTEILLDVTDEEIYYVAKDAHRKATKAPAKQLAQSSALASLTGLGGLGGYGSGDSEDERSDRGSESSDTDDEELRHRIRQKQEAFWRKEKEQQLLHDKQMEEEKQQTERVTKEMNEFIHKEQNSLSLLEAREADGDVVNEKKRTPNETTSVLEPKKEHKEKEKQGRSRSGSSSSGSSSSNSRTSSTSSTVSSSSYSSSSGSSRTSSRSSSPKRKKRHSRSRSPTIKARRSRSRSYSRRIKIESNRARVKIRDRRRSNRNSIERERRRNRSPSRERRRSRSRSRDRRTNRASRSRSRDRRKIDDQRGNLSGNSHKHKGEAKEQERKKERSRSIDKDRKKKDKEREREQDKRKEKQKREEKDFKFSSQDDRLKRKRESERTFSRSGSISVKIIRHDSRQDSKKSTTKDSKKHSGSDSSGRSSSESPGSSKEKKAKKPKHSRSRSVEKSQRSGKKASRKHKSKSRSR [PNISR]
- solubility change mitosis (log2) (HeLa Kyoto [1]): 0.456
- melting temperature (HeLa Kyoto [2]; cell cycle stage: G1/S): 59.9 °C
- melting temperature (HeLa Kyoto [2]; cell cycle stage: mitosis): 54.5 °C
- solubility in G1/S (log2) (HeLa Kyoto [3]): -0.83
- thermal stability score (HeLa Kyoto [4]; [5]): -6.44
- thermal stability score (HeLa Kyoto [4]; cell cycle stage: mitosis): -8.27

Sequence: MQANGAGGGGGGGGGGGGGGGGGGGQGQTPELACLSAQNGESSPSSSSSAGDLAHANGLLPSAPSAASNNSNSLNVNNGVPGGAAAASSATVAAASATTAASSSLATPELGSSLKKKKRLSQSDEDVIRLIGQHLNGLGLNQTVDLLMQESGCRLEHPSATKFRNHVMEGDWDKAENDLNELKPLVHSPHAIVVRGALEISQTLLGIIVRMKFLLLQQKYLEYLEDGKVLEALQVLRCELTPLKYNTERIHVLSGYLMCSHAEDLRAKAEWEGKGTASRSKLLDKLQTYLPPSVMLPPRRLQTLLRQAVELQRDRCLYHNTKLDNNLDSVSLLIDHVCSRRQFPCYTQQILTEHCNEVWFCKFSNDGTKLATGSKDTTVIIWQVDPDTHLLKLLKTLEGHAYGVSYIAWSPDDNYLVACGPDDCSELWLWNVQTGELRTKMSQSHEDSLTSVAWNPDGKRFVTGGQRGQFYQCDLDGNLLDSWEGVRVQCLWCLSDGKTVLASDTHQRIRGYNFEDLTDRNIVQEDHPIMSFTISKNGRLALLNVATQGVHLWDLQDRVLVRKYQGVTQGFYTIHSCFGGHNEDFIASGSEDHKVYIWHKRSELPIAELTGHTRTVNCVSWNPQIPSMMASASDDGTVRIWGPAPFIDHQNIEEECSSMDS [WDR26]
- solubility change mitosis (log2) (HeLa Kyoto [1]): -0.151
- melting temperature (HeLa Kyoto [2]; cell cycle stage: G1/S): 52.1 °C
- melting temperature (HeLa Kyoto [2]; cell cycle stage: mitosis): 50.7 °C
- solubility in G1/S (log2) (HeLa Kyoto [3]): -0.108
- thermal stability score (HeLa Kyoto [4]; [5]): 0.266
- thermal stability score (HeLa Kyoto [4]; cell cycle stage: mitosis): 0.763

Sequence: MAAAQEADGARSAVVAAGGGSSGQVTSNGSIGRDPPAETQPQNPPAQPAPNAWQVIKGVLFRIFIIWAISSWFRRGPAPQDQAGPGGAPRVASRNLFPKDTLMNLHVYISEHEHFTDFNATSALFWEQHDLVYGDWTSGENSDGCYEHFAELDIPQSVQQNGSIYIHVYFTKSGFHPDPRQKALYRRLATVHMSRMINKYKRRRFQKTKNLLTGETEADPEMIKRAEDYGPVEVISHWHPNITINIVDDHTPWVKGSVPPPLDQYVKFDAVSGDYYPIIYFNDYWNLQKDYYPINESLASLPLRVSFCPLSLWRWQLYAAQSTKSPWNFLGDELYEQSDEEQDSVKVALLETNPYLLALTIIVSIVHSVFEFLAFKNDIQFWNSRQSLEGLSVRSVFFGVFQSFVVLLYILDNETNFVVQVSVFIGVLIDLWKITKVMDVRLDREHRVAGIFPRLSFKDKSTYIESSTKVYDDMAFRYLSWILFPLLGCYAVYSLLYLEHKGWYSWVLSMLYGFLLTFGFITMTPQLFINYKLKSVAHLPWRMLTYKALNTFIDDLFAFVIKMPVMYRIGCLRDDVVFFIYLYQRWIYRVDPTRVNEFGMSGEDPTAAAPVAEVPTAAGALTPTPAPTTTTATREEASTSLPTKPTQGASSASEPQEAPPKPAEDKKKD [CLPTM1]
- solubility change mitosis (log2) (HeLa Kyoto [1]): -0.142
- melting temperature (HeLa Kyoto [2]; cell cycle stage: G1/S): 53.4 °C
- melting temperature (HeLa Kyoto [2]; cell cycle stage: mitosis): 53.8 °C
- solubility in G1/S (log2) (HeLa Kyoto [3]): -0.0403
- thermal stability score (HeLa Kyoto [4]; [5]): 3.21
- thermal stability score (HeLa Kyoto [4]; cell cycle stage: mitosis): 0.298

Sequence: MSFLLPKLTSKKEVDQAIKSTAEKVLVLRFGRDEDPVCLQLDDILSKTSSDLSKMAAIYLVDVDQTAVYTQYFDISYIPSTVFFFNGQHMKVDYGSPDHTKFVGSFKTKQDFIDLIEVIYRGAMRGKLIVQSPIDPKNIPKYDLLYQDI [TXNL4B]
- solubility change mitosis (log2) (HeLa Kyoto [1]): 0.00266
- melting temperature (HeLa Kyoto [2]; cell cycle stage: G1/S): 51 °C
- melting temperature (HeLa Kyoto [2]; cell cycle stage: mitosis): 51.8 °C
- solubility in G1/S (log2) (HeLa Kyoto [3]): 0.0975
- thermal stability score (HeLa Kyoto [4]; [5]): 0.0365
- thermal stability score (HeLa Kyoto [4]; cell cycle stage: mitosis): 1.15

Sequence: MAASCVLLHTGQKMPLIGLGTWKSEPGQVKAAVKYALSVGYRHIDCAAIYGNEPEIGEALKEDVGPGKAVPREELFVTSKLWNTKHHPEDVEPALRKTLADLQLEYLDLYLMHWPYAFERGDNPFPKNADGTICYDSTHYKETWKALEALVAKGLVQALGLSNFNSRQIDDILSVASVRPAVLQVECHPYLAQNELIAHCQARGLEVTAYSPLGSSDRAWRDPDEPVLLEEPVVLALAEKYGRSPAQILLRWQVQRKVICIPKSITPSRILQNIKVFDFTFSPEEMKQLNALNKNWRYIVPMLTVDGKRVPRDAGHPLYPFNDPY [AKR1A1]
- solubility change mitosis (log2) (HeLa Kyoto [1]): -0.00767
- melting temperature (HeLa Kyoto [2]; cell cycle stage: G1/S): 52.1 °C
- melting temperature (HeLa Kyoto [2]; cell cycle stage: mitosis): 52.7 °C
- solubility in G1/S (log2) (HeLa Kyoto [3]): 0.534
- thermal stability score (HeLa Kyoto [4]; [5]): -0.223
- thermal stability score (HeLa Kyoto [4]; cell cycle stage: mitosis): -1.09

Sequence: MKRSGTLRLLSDLSAFGGAARLRELVAGDSAVRVRGSPDGRHLLLLRPPGAVAPQLLVASRGPGAELERAWPAGQPSPLDAFFLPWPARPALVLVWESGLAEVWGAGVGPGWRPLQSTELCPGGGARVVAVAALRGRLVWCEERQARAEGPSGSPAAAFSHCVCVRTLEPSGEASTSLGRTHVLLHHCPAFGLLASCRQLFLVPTATTWPGVAHVLLIWSPGKGKVMVAAPRLGLSYSKSLNPGRGDTWDFRTLLRGLPGLLSPREPLAVHTWAPTPQGLLLLDFGGTVSLLQSHGGTRAVGTLQEAPVGPWGSAALGTFQGTLACVLGSTLELLDMGSGQLLERKVLSTDRVHLLEPPAPGMEDEEELETRGNLRLLSALGLFCVGWEAPQGVELPSAKDLVFEEACGYYQRRSLRGAQLTPEELRHSSTFRAPQALASILQGHLPPSALLTMLRTELRDYRGLEQLKAQLVAGDDEEAGWTELAEQEVARLLRTELIGDQLAQLNTVFQALPTAAWGATLRALQLQLDGNGKLRSQAPPDVWKKVLGGITAGKEPPNGILPPFELLCQCLCQLEPRWLPPFVELAQQQGGPGWGAGGPGLPLYRRALAVLGEEGTRPEALELELLLSSGRPKAVLQAVGQLVQKEQWDRALDAGLALGPSSPLLRSEIFKLLLAEFAQHRRLDAHLPLLCRLCPPELAPAELLLLLRTYLPDEVGPPTPFPEPGAEPPLTVGLLKALLEQTGAQGWLSGPVLSPYEDILWDPSTPPPTPPRDL [HPS6]
- solubility change mitosis (log2) (HeLa Kyoto [1]): -0.149
- melting temperature (HeLa Kyoto [2]; cell cycle stage: G1/S): 49.3 °C
- melting temperature (HeLa Kyoto [2]; cell cycle stage: mitosis): 49.1 °C
- solubility in G1/S (log2) (HeLa Kyoto [3]): 0.12
- thermal stability score (HeLa Kyoto [4]; [5]): 0.139
- thermal stability score (HeLa Kyoto [4]; cell cycle stage: mitosis): 0.929
